In assay [1] the target is T1, VV B5 monomer protein (Wyeth Vaccinia strain B5 with C-terminal AVI tag and HIS6 tag) (Vaccinia virus, Wyeth strain, UniProt O57254 18-279).
T1 construct: also called B5 protein; VV B5 protein
Briefly: ELISA, B5 monomer coated.

Assay [2] concerns the target T2, Western Reserve B5 on cells infected with VVddeGFP Western Reserve virus (Vaccinia virus, Western Reserve strain, UniProt Q01227 18-317).
T2 construct: also called VV B5; WR
Briefly: flow cytometry, HT29 cells infected with WR VV. (Flow cytometry measures light scatter and fluorescence of single cells or particles in a stream.)

Assay [3] addresses T2, Western Reserve B5 on cells infected …. Briefly: flow cytometry, SKOV3 cells infected with WR VV.
Assay [4] deals with T3, Copenhagen B5 on cells infected with VVCopenhagen (YFP) virus (Vaccinia virus, Copenhagen strain, UniProt P21115 18-317).
T3 construct: also called VV B5
Briefly: flow cytometry, HT29 cells infected with Copenhagen VV.

Assay [5] addresses T1, VV B5 monomer protein (Wyeth Vaccinia …). Briefly: BLI (Octet), antibody on AHC sensor, B5 monomer analyte. (In BLI a coated tip is dipped into the sample, and binding shifts an interference pattern.)
Assay [6] has the same target. The description is as above. This is another data set of the same source.

Numbering of substitutions follows the chain as printed. Where two headings read alike, the source gives them in different places.

B1: A048-H3L1 (antibody, V domains shown)
VH: EVQLLESGGGLVQPGGSLRLSCAASGFSFSSSYYMCWVRQAPGKGLEWIACIYTSSGSAYYADSVKGRFTISRDNSKNTLYLQMNSLRAEDTAVYYCVRNAVGSSYYLYLWGQGTLVTVSS
VL: DIQMTQSPSTLSASVGDRVTITCQASQSVAGNNYLSWYQQKPGKAPKLLIYSVSTLASGVPSRFSGSGSGTEFTLTISSLQPDDFATYYCQGYYNDGIWAFGQGTKVEIK
For orientation: EC50 means the concentration at which the effect is half-maximal. By Kd is commonly meant the free concentration of one partner at which half of the binding sites on the other are occupied at equilibrium, for simple one-to-one binding. A high value points to lower affinity. By koff is commonly meant the first-order rate constant of dissociation. A low value points to a long-lived complex. For orientation: kon means the second-order rate constant of association. For B1, the EC50 in assay [1] stood at 0.0854 nM; in assay [2], 0.86 nM; in assay [3] it was 0.94 nM; in assay [4] it was 0.89 nM. Further, binding in assay [5] was put at a Kd of 4.37 nM. The molecule also displayed a koff in assay [5] of 0.000468 s⁻¹. This molecule had a kon in assay [5] of 107000 M⁻¹ s⁻¹.

B2: A048-H2L1 (antibody, V domains shown)
VH: EVQLLESGGGLVQPGGSLRLSCAASGFSFSSSYYMCWVRQAPGKGLEWIACIYTSSGSAYYANWAKGRFTISRTSSTTVTLQMNSLRAEDTAVYYCVRNAVGSSYYLYLWGQGTLVTVSS
VL: B1 VL
On to B2, for which the EC50 is 0.0969 nM in assay [1], 1.37 nM in assay [2], 0.53 nM in assay [3] and 1.48 nM in assay [4]. In addition, in assay [5], the affinity, expressed as Kd, was 7.21 nM. Also, in assay [5], the koff amounted to 0.000672 s⁻¹. The same molecule gave a kon in assay [5] of 93000 M⁻¹ s⁻¹.

B3: A048-H1L1 (antibody, V domains shown)
VH: B1 VH with D63N, S64W, V65A
VL: B1 VL
Turning to B3, the half-maximal effective concentration (EC50) in assay [1] was 0.0862 nM; in assay [2], 0.97 nM; in assay [3] it was 1.03 nM; in assay [4] it was 2.37 nM. Moreover, the Kd in assay [5] is 9.96 nM. The koff in assay [5] amounted to 0.000763 s⁻¹. For the same molecule, the kon in assay [5] came to 76600 M⁻¹ s⁻¹.

B4: A048-H4L1 (antibody, V domains shown)
VH: B2 VH with N63D, W64S, A65V
VL: B1 VL
B4: the 50% effective concentration (EC50) was 0.0953 nM in assay [1], 2.77 nM in assay [2], 0.88 nM in assay [3] and 1.34 nM in assay [4]. In addition, in assay [5], the affinity, expressed as Kd, was 6.72 nM. Moreover, in assay [5], the koff was 0.000478 s⁻¹. Besides, the association rate constant (kon) in assay [5] worked out at 71000 M⁻¹ s⁻¹.

B5: A048-H1L2 (antibody, V domains shown)
VH: B1 VH with D63N, S64W, V65A
VL: B1 VL with D1A, I2Q, Q3V, M4L
B5: the EC50 was 0.0717 nM in assay [1], 2.2 nM in assay [2], 0.76 nM in assay [3] and 0.77 nM in assay [4]. Further, in assay [5], the Kd was 9.71 nM. The koff in assay [5] was found to be 0.000764 s⁻¹. The kon in assay [5] amounted to 78600 M⁻¹ s⁻¹.

B6: A048-H2L2 (antibody, V domains shown)
VH: B2 VH
VL: B1 VL with D1A, I2Q, Q3V, M4L
Regarding B6, the EC50 in assay [1] was found to be 0.0914 nM; in assay [2] it was 1.71 nM; in assay [3], 0.8 nM; in assay [4], 1.28 nM. Binding in assay [5] was put at a Kd of 7.91 nM. Besides, in assay [5], the koff amounted to 0.000698 s⁻¹. The kon in assay [5] was 88100 M⁻¹ s⁻¹.

B7: A048-H4L2 (antibody, V domains shown)
VH: B2 VH with N63D, W64S, A65V
VL: B1 VL with D1A, I2Q, Q3V, M4L
On to B7, for which the EC50 in assay [1] is 0.107 nM; in assay [2], 6.59 nM; in assay [3], 0.71 nM; in assay [4] it was 1.78 nM. Also, the Kd in assay [5] worked out at 7.69 nM. In assay [5], this molecule gave a koff of 0.000481 s⁻¹. This molecule came in with a kon in assay [5] of 62400 M⁻¹ s⁻¹.

B8: A048-H4L3 (antibody, V domains shown)
VH: B2 VH with N63D, W64S, A65V
VL: B1 VL with T10S, A45V, E72D, D83E, F85V
Take B8: the EC50 in assay [1] worked out at 0.114 nM; in assay [2] it was 3.5 nM; in assay [3], 1.37 nM; in assay [4], 1.12 nM. Also, binding in assay [5] was characterised by a dissociation constant (Kd) of 6.31 nM. The molecule also registered a koff in assay [5] of 0.000476 s⁻¹. The same molecule gave a kon in assay [5] of 75200 M⁻¹ s⁻¹.

B9: A048-H2L3 (antibody, V domains shown)
VH: B2 VH
VL: B1 VL with T10S, A45V, E72D, D83E, F85V
Turning to B9, the EC50 in assay [1] stood at 0.0515 nM; in assay [2] it was 1.73 nM; in assay [3], 0.55 nM; in assay [4] it was 0.77 nM. This molecule also yielded a Kd in assay [5] of 9.23 nM. For the same molecule, the koff in assay [5] is 0.000759 s⁻¹. For the same molecule, the association rate constant (kon) in assay [5] stood at 82100 M⁻¹ s⁻¹.

B10: A048-H1L3 (antibody, V domains shown)
VH: B1 VH with D63N, S64W, V65A
VL: B1 VL with T10S, A45V, E72D, D83E, F85V
Turning to B10, the EC50 in assay [1] stood at 0.0802 nM; in assay [2], 3.48 nM; in assay [3], 1.2 nM; in assay [4], 1.88 nM. For the same molecule, the affinity in assay [5], expressed as Kd, was 8.76 nM. The molecule further gave a koff in assay [5] of 0.000846 s⁻¹. This molecule also showed a kon in assay [5] of 96400 M⁻¹ s⁻¹.

B11: A048-H4L4 (antibody, V domains shown)
VH: B2 VH with N63D, W64S, A65V
VL: B1 VL with D1A, I2Q, Q3V, M4L, T10S, A45V, E72D, D83E, F85V
As to B11, the EC50 amounted to 0.114 nM in assay [1], 3.05 nM in assay [2], 2.36 nM in assay [3] and 1.32 nM in assay [4]. Further, binding in assay [5] was put at a Kd of 9.6 nM. The dissociation rate constant (koff) in assay [5] is 0.000549 s⁻¹. Also, the kon in assay [5] worked out at 57000 M⁻¹ s⁻¹.

B12: A048-H1L4 (antibody, V domains shown)
VH: B1 VH with D63N, S64W, V65A
VL: B1 VL with D1A, I2Q, Q3V, M4L, T10S, A45V, E72D, D83E, F85V
For the molecule B12, the EC50 was 0.102 nM in assay [1], 0.68 nM in assay [2], 0.44 nM in assay [3] and 0.98 nM in assay [4]. This molecule also yielded a Kd in assay [5] of 12 nM. This molecule gave a koff in assay [5] of 0.000953 s⁻¹. Further, the kon in assay [5] stood at 79400 M⁻¹ s⁻¹.

B13: A048-H3L3 (antibody, V domains shown)
VH: B1 VH
VL: B1 VL with T10S, A45V, E72D, D83E, F85V
In the case of B13, the EC50 in assay [1] amounted to 0.0979 nM; in assay [2], 1.81 nM; in assay [3] it was 0.83 nM; in assay [4], 1.03 nM. Moreover, the dissociation constant Kd in assay [5] was 7.71 nM. The molecule also had a dissociation rate constant (koff) in assay [5] of 0.000733 s⁻¹. In addition, in assay [5], the kon was determined as 94900 M⁻¹ s⁻¹.

B14: A048-H3L2 (antibody, V domains shown)
VH: B1 VH
VL: B1 VL with D1A, I2Q, Q3V, M4L
For B14, the EC50 in assay [1] was determined as 0.0835 nM; in assay [2], 1.32 nM; in assay [3], 0.67 nM; in assay [4], 1.87 nM. Also, the Kd in assay [6] turned out to be 3 nM; in assay [5], 3.83 nM. The molecule further registered a koff in assay [5] of 0.000397 s⁻¹. The kon in assay [5] is 103000 M⁻¹ s⁻¹.

B15: A048-H2L4 (antibody, V domains shown)
VH: B2 VH
VL: B1 VL with D1A, I2Q, Q3V, M4L, T10S, A45V, E72D, D83E, F85V
Consider B15, for which the EC50 in assay [1] was 0.0844 nM; in assay [2] it was 1.68 nM; in assay [3], 0.69 nM; in assay [4], 2.85 nM. The molecule also returned a Kd in assay [5] of 6.23 nM. The same molecule yielded a koff in assay [5] of 0.000512 s⁻¹. In assay [5], this molecule displayed a kon of 81600 M⁻¹ s⁻¹.

B16: A048-H3L4 (antibody, V domains shown)
VH: B1 VH
VL: B1 VL with D1A, I2Q, Q3V, M4L, T10S, A45V, E72D, D83E, F85V
On to B16, for which the half-maximal effective concentration (EC50) turned out to be 0.106 nM in assay [1], 3.78 nM in assay [2], 1.28 nM in assay [3] and 1.96 nM in assay [4]. In addition, the Kd in assay [5] is 8.57 nM. The molecule also gave a koff in assay [5] of 0.000722 s⁻¹. For the same molecule, the kon in assay [5] came out at 84100 M⁻¹ s⁻¹.

B17: A048-H5L5 (antibody, V domains shown)
VH: QVTLKESGPVLVKPTETLTLTCTASGFSFSSSYYMCWVRQPPGKALEWIACIYTSSGSAYYANWAKGRFTISRDTSKSQVVLTMTNMDPVDTATYFCVRNAVGSSYYLYLWGQGTLVTVSS
VL: EQVLTQSPATLSLSPGERATLSCQASQSVAGNNYLSWYQQKPGQAPRLLIYSVSTLASGIPARFSGSGSGTDFTLTISSLEPEDFAVYYCQGYYNDGIWAFGQGTKLEIK
As for B17, the EC50 in assay [1] turned out to be 0.104 nM; in assay [2], 2.28 nM; in assay [3], 1.36 nM; in assay [4] it was 2.39 nM. The molecule also showed a Kd in assay [5] of 8.55 nM. The same molecule had a koff in assay [5] of 0.000521 s⁻¹. Besides, in assay [5], the kon is 60800 M⁻¹ s⁻¹.

B18: A048 parental (antibody, V domains shown)
VH: QEQLEESGGGLVKPEGSLTLTCTASGFSFSSSYYMCWVRQAPGRGLEWIACIYTSSGSAYYANWAKGRFTISRTSSTTVTLQMTRLTAADTATYFCVRNAVGSSYYLYLWGPGTLVTVSS
VL: AQVLTQTPSPVSAAVGGTVTISCQASQSVAGNNYLSWYQQKPGQPPNLLIYSVSTLASGVPSRFKGSGSGTQFTLTISDLECDDAATYYCQGYYNDGIWAFGGGTEVVVK
notes: also called A048 rabbit parental antibody; A048 parental anti-B5 hIgG1
Turning to B18, the EC50 in assay [1] was found to be 0.116 nM; in assay [2], 3.51 nM; in assay [3], 3.98 nM; in assay [4] it was 1.08 nM. Also, in assay [5], the Kd was 9.51 nM. In addition, the dissociation rate constant (koff) in assay [5] stood at 0.000601 s⁻¹. In addition, in assay [5], the kon came out at 62400 M⁻¹ s⁻¹.

(Values after patent publication US20240309070A1 (ADMARE THERAPEUTICS SOCIETY, published 2024).)
